US20060148746, “Nucleic acid inhibitors of glutamate receptors” (published 2006)

Target: GluR2Qflip AMPA receptor (homomeric channel) (UniProt P19491-2 P19491-2:22-883)
Assay: inhibition; intrinsic KI, whole-cell current, competitive; pH 7.4, 22 C, -60 mV
Conditions: tags: expressed in HEK-293S cells (co-transfected with GFP and SV40 large T antigen); chain copies: 4
Experimental: Glutamate, a natural neurotransmitter, was used as the activating ligand, and the resulting receptor response in a single cell was recorded. Recording electrodes were made from glass capillary pipettes and fire polished. The electrode resistance was ˜3M Ω when filled with the electrode solution. The electrode solution contained 110 mM CsF, 30 mM CsCl, 4 mM MaCl, 0.5 mM CaCl₂, 5 mM EGTA, and 10 mM Hepes (pH 7.4 adjusted by CsOH). The external bath solution contained 150 mM NaCl, 3 mM KCl, 1 mM CaCl₂, 1 mM MgCl₂ and 10 mM Hepes (pH7.4 adjusted by NaOH). The GFP fluorescence in transfected cells was visualized using an Axiovert S100 microscope with a fluorescent detection system from Carl Zeiss (Thornwood, N.Y.). The whole-cell current was recorded using an Axonpatch-200B amplifier at a cutoff frequency of 2-20 kHz by a built-in eight-pole Bessel filter and digitized at 5-50 kHz sampling frequency using a Digidata 1322A from Axon Instruments (Union City, Calif.). The data acquisition software was pCLAMP 8, also from Axon Instruments.
The present invention relates to the discovery and characterization of a group of water-soluble AMPA receptor inhibitors, which are RNA aptamers that can fold into unique three-dimensional structures that confer high affinity and specificity against biological targets. […]

GluR2Qflip AMPA receptor (homomeric channel), sequence (P19491 other isoform, or with tags, fused parts or gaps): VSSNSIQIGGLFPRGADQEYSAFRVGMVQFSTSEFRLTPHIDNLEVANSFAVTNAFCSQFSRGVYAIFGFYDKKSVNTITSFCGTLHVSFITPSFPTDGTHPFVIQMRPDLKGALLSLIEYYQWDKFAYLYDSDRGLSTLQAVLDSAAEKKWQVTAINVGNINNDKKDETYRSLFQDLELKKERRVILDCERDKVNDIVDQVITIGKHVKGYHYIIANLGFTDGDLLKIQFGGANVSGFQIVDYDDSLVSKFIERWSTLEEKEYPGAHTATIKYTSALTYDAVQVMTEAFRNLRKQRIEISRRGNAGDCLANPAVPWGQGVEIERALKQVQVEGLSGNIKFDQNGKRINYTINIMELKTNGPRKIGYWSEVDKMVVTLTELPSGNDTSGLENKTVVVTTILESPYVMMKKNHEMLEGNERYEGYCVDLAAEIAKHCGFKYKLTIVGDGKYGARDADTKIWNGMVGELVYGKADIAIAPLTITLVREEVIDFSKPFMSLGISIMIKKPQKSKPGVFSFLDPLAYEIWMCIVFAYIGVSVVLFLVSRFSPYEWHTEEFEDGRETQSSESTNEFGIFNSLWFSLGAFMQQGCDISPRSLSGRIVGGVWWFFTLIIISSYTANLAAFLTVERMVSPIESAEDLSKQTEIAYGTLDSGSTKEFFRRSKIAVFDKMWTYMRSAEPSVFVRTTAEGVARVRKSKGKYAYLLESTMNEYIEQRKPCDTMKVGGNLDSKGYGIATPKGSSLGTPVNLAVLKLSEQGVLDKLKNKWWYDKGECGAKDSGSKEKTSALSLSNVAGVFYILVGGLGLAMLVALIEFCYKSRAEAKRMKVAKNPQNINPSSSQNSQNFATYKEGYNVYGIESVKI

B1: AN57 (57-nt minimal aptamer, M1+M2 mixture) (ssRNA)
RNA: GGGCGAAUUCACUGCCAUCUAGGCAGUAACCAGGAGUUAGUAGGACAAGUUUCGUCC
Work on B1 yielded a Ki of 133 nM.
